B1: Nuclear factor NF-kappa-B p105 subunit (Homo sapiens), P19838 (parent)
chain: MAEDDPYLGRPEQMFHLDPSLTHTIFNPEVFQPQMALPTDGPYLQILEQPKQRGFRFRYVCEGPSHGGLPGASSEKNKKSYPQVKICNYVGPAKVIVQLVTNGKNIHLHAHSLVGKHCEDGICTVTAGPKDMVVGFANLGILHVTKKKVFETLEARMTEACIRGYNPGLLVHPDLAYLQAEGGGDRQLGDREKELIRQAALQQTKEMDLSVVRLMFTAFLPDSTGSFTRRLEPVVSDAIYDSKAPNASNLKIVRMDRTAGCVTGGEEIYLLCDKVQKDDIQIRFYEEEENGGVWEGFGDFSPTDVHRQFAIVFKTPKYKDINITKPASVFVQLRRKSDLETSEPKPFLYYPEIKDKEEVQRKRQKLMPNFSDSFGGGSGAGAGGGGMFGSGGGGGGTGSTGPGYSFPHYGFPTYGGITFHPGTTKSNAGMKHGTMDTESKKDPEGCDKSDDKNTVNLFGKVIETTEQDQEPSEATVGNGEVTLTYATGTKEESAGVQDNLFLEKAMQLAKRHANALFDYAVTGDVKMLLAVQRHLTAVQDENGDSVLHLAIIHLHSQLVRDLLEVTSGLISDDIINMRNDLYQTPLHLAVITKQEDVVEDLLRAGADLSLLDRLGNSVLHLAAKEGHDKVLSILLKHKKAALLLDHPNGDGLNAIHLAMMSNSLPCLLLLVAAGADVNAQEQKSGRTALHLAVEHDNISLAGCLLLEGDAHVDSTTYDGTTPLHIAAGRGSTRLAALLKAAGADPLVENFEPLYDLDDSWENAGEDEGVVPGTTPLDMATSWQVFDILNGKPYEPEFTSDDLLAQGDMKQLAEDVKLQLYKLLEIPDPDKNWATLAQKLGLGILNNAFRLSPAPSKTLMDNYEVSGGTVRELVEALRQMGYTEAIEVIQAASSPVKTTSQAHSLPLSPASTRQQIDELRDSDSVCDSGVETSFRKLSFTESLTSGASLLTLNKMPHDYGQEGPLEGKI

Variants of: B1
Settings: with hif1n_human HIF1AN

Which “effect of a mutation on the interaction” value does the source give for N678A here?
Its value is “disrupting interaction strength”.
